The supplement of paper PMC7877785
± gives the uncertainty stated by the source.

Assay: self-splicing fitness, log relative to wild type (ln ratio); higher = more splicing; Tetrahymena group I intron in knt gene, E. coli kanamycin selection, DiMSum; sequences stand for … in CUCUCU…GGAGGGAAAAGUUAUCAGGCAUGCACCUGGUAGCUAGUCUUUAAACCAAUAGAUUGCAUCGGUUUAAAAGGCAAGACCGUCAAAUUGCGGGAAAGGGGUCAACAGCCGUUCAGUACCAAGUCUCAGGGGAAACUUUGAGAUGGCCUUGCAAAGGGUAUGGUAAUAAGCUGACGGACAUGGUCCUAACCACGCAGCCAAGUCCUAAGUCAACAGAUCUUCUGUUGAUAUGGAUGCAGUUCACAGACUAAAUGUCGGUCGGGGAAGAUGUAUUCUUCUCAUAAGAUAUAGUCGGACCUCUCCUUAAUGGGAGCUAGCGGAUGAAGUGAUGCAACACUGGAGCCGCUGGGAACUAAUUUGUAUGCGAAAGUAUAUUGAUUAGUUUUGGAGUACUCGUGGUCG
Procedure, shortened: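 The eight P1ex-region nucleotides of an intron in the knt kanamycin-resistance gene on pET-22b(+) were all randomised and the library put into E. coli BL21(DE3). Six replicate transformations were grown overnight at 37°C or 30°C on LB agar with or without 25 μg/mL kanamycin, together with 100 μg/mL carbenicillin, 50 μM IPTG and 0.2% rhamnose. Colonies were pooled and amplicon-sequenced on an Illumina HiSeq 2500. Fitness from DiMSum is the error-weighted combination of wild-type-normalised replicate fold changes, kanamycin over none.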

In the case of CUGAAGCAAUAUUACGGUAA, the “self-splicing fitness (ln)” value (30 °C) is reported as -3.7 ± 0.24 and the “self-splicing fitness (ln)” value (37 °C) is reported as -1.27 ± 0.24.

In the case of CUGAAGCAAUAUUACGGUGA, the “self-splicing fitness (ln)” value (30 °C) is reported as -4.38 ± 0.31 and the “self-splicing fitness (ln)” value (37 °C) is reported as -2.6 ± 0.21.

With CUGAAGCAAUAUUACGUCAA the “self-splicing fitness (ln)” value (30 °C) was -1.2 ± 0.065 and the “self-splicing fitness (ln)” value (37 °C) was -0.435 ± 0.084.

With CUGAAGCAAUAUUACGUUAC the “self-splicing fitness (ln)” value (30 °C) was -3.27 ± 0.35 and the “self-splicing fitness (ln)” value (37 °C) was -2.39 ± 0.44.

With CUGAAGCAAUAUUACGUUGA the “self-splicing fitness (ln)” value (30 °C) was -4.04 ± 0.18 and the “self-splicing fitness (ln)” value (37 °C) was -2.66 ± 0.21.

With CUGCAGCAAUAUUACGAAAU the “self-splicing fitness (ln)” value (30 °C) was -3.51 ± 0.37 and the “self-splicing fitness (ln)” value (37 °C) was -1.62 ± 0.18.

With CUGCAGCAAUAUUACGACAA the “self-splicing fitness (ln)” value (37 °C) was -0.88 ± 0.19.

With CUGCAGCAAUAUUACGAGGA the “self-splicing fitness (ln)” value (30 °C) was -3.68 ± 0.22 and the “self-splicing fitness (ln)” value (37 °C) was -2.39 ± 0.18.

With CUGCAGCAAUAUUACGAGGC the “self-splicing fitness (ln)” value (30 °C) was -2.65 ± 0.17 and the “self-splicing fitness (ln)” value (37 °C) was -1.97 ± 0.22.

With CUGCAGCAAUAUUACGAUCG the “self-splicing fitness (ln)” value (30 °C) was -0.0275 ± 0.073 and the “self-splicing fitness (ln)” value (37 °C) was 0.558 ± 0.1.

For CUGCAGCAAUAUUACGAUUA, the “self-splicing fitness (ln)” value (30 °C) was -3.35 ± 0.28 and the “self-splicing fitness (ln)” value (37 °C) was -2.32 ± 0.16.

With CUGCAGCAAUAUUACGCACU the “self-splicing fitness (ln)” value (30 °C) was -3.45 ± 0.2 and the “self-splicing fitness (ln)” value (37 °C) was -0.783 ± 0.17.

For CUGCAGCAAUAUUACGCAGG, the “self-splicing fitness (ln)” value (30 °C) was -2.91 ± 0.17 and the “self-splicing fitness (ln)” value (37 °C) was -2.15 ± 0.16.

With CUGCAGCAAUAUUACGCUGU the “self-splicing fitness (ln)” value (30 °C) was -1.87 ± 0.12 and the “self-splicing fitness (ln)” value (37 °C) was -2.8 ± 0.3.

In the case of CUGCAGCAAUAUUACGGCUG, the “self-splicing fitness (ln)” value (30 °C) is reported as -3.32 ± 0.3 and the “self-splicing fitness (ln)” value (37 °C) is reported as -1.52 ± 0.26.

In the case of CUGCAGCAAUAUUACGGGAA, the “self-splicing fitness (ln)” value (30 °C) is reported as -4.02 ± 0.29 and the “self-splicing fitness (ln)” value (37 °C) is reported as -2.53 ± 0.17.

For CUGCAGCAAUAUUACGUACG, the “self-splicing fitness (ln)” value (30 °C) was -0.548 ± 0.082 and the “self-splicing fitness (ln)” value (37 °C) was 0.0422 ± 0.11.

In the case of CUGCAGCAAUAUUACGUAGA, the “self-splicing fitness (ln)” value (30 °C) is reported as -3.08 ± 0.15 and the “self-splicing fitness (ln)” value (37 °C) is reported as -3.35 ± 0.3.

For CUGCAGCAAUAUUACGUAUA, the “self-splicing fitness (ln)” value (30 °C) was -2.64 ± 0.17 and the “self-splicing fitness (ln)” value (37 °C) was -2.16 ± 0.18.

In the case of CUGCAGCAAUAUUACGUUCA, the “self-splicing fitness (ln)” value (30 °C) is reported as -3.81 ± 0.2 and the “self-splicing fitness (ln)” value (37 °C) is reported as -1.97 ± 0.15.

In the case of CUGCAGCAAUAUUACGUUCC, the “self-splicing fitness (ln)” value (37 °C) is reported as -1.74 ± 0.35.

For CUGGAGCAAUAUUACGAAGG, the “self-splicing fitness (ln)” value (30 °C) was -3.43 ± 0.28 and the “self-splicing fitness (ln)” value (37 °C) was -1.97 ± 0.27.

In the case of CUGGAGCAAUAUUACGAUUC, the “self-splicing fitness (ln)” value (30 °C) is reported as -2.02 ± 0.29.

In the case of CUGGAGCAAUAUUACGAUUG, the “self-splicing fitness (ln)” value (30 °C) is reported as -1.87 ± 0.12 and the “self-splicing fitness (ln)” value (37 °C) is reported as 0.00165 ± 0.13.

In the case of CUGGAGCAAUAUUACGCGUU, the “self-splicing fitness (ln)” value (30 °C) is reported as -3.89 ± 0.33 and the “self-splicing fitness (ln)” value (37 °C) is reported as -1.86 ± 0.27.

For CUGGAGCAAUAUUACGGAGU, the “self-splicing fitness (ln)” value (30 °C) was -2.37 ± 0.22.

With CUGGAGCAAUAUUACGGAUA the “self-splicing fitness (ln)” value (30 °C) was -3.57 ± 0.48 and the “self-splicing fitness (ln)” value (37 °C) was -1.35 ± 0.25.

For CUGGAGCAAUAUUACGGCAC, the “self-splicing fitness (ln)” value (30 °C) was -3.28 ± 0.32 and the “self-splicing fitness (ln)” value (37 °C) was -2.35 ± 0.39.

With CUGGAGCAAUAUUACGGGGG the “self-splicing fitness (ln)” value (30 °C) was -2.27 ± 0.26 and the “self-splicing fitness (ln)” value (37 °C) was -1.89 ± 0.4.

In the case of CUGGAGCAAUAUUACGGGUG, the “self-splicing fitness (ln)” value (30 °C) is reported as -1.61 ± 0.079 and the “self-splicing fitness (ln)” value (37 °C) is reported as -0.251 ± 0.078.

For CUGGAGCAAUAUUACGGUAA, the “self-splicing fitness (ln)” value (30 °C) was -2.61 ± 0.28 and the “self-splicing fitness (ln)” value (37 °C) was -2.89 ± 0.25.

With CUGGAGCAAUAUUACGGUAU the “self-splicing fitness (ln)” value (30 °C) was -4.78 ± 0.41 and the “self-splicing fitness (ln)” value (37 °C) was -2.49 ± 0.31.

With CUGGAGCAAUAUUACGGUCA the “self-splicing fitness (ln)” value (30 °C) was -2.54 ± 0.47.

In the case of CUGGAGCAAUAUUACGGUUC, the “self-splicing fitness (ln)” value (30 °C) is reported as -2.68 ± 0.49.

For CUGGAGCAAUAUUACGUCUC, the “self-splicing fitness (ln)” value (30 °C) was -2.68 ± 0.33 and the “self-splicing fitness (ln)” value (37 °C) was -1.16 ± 0.36.

With CUGGAGCAAUAUUACGUGGU the “self-splicing fitness (ln)” value (30 °C) was -3.53 ± 0.22 and the “self-splicing fitness (ln)” value (37 °C) was -2.4 ± 0.35.

For CUGGAGCAAUAUUACGUUAG, the “self-splicing fitness (ln)” value (30 °C) was -1.65 ± 0.068 and the “self-splicing fitness (ln)” value (37 °C) was -1.51 ± 0.098.

In the case of CUGGAGCAAUAUUACGUUCU, the “self-splicing fitness (ln)” value (30 °C) is reported as -2.43 ± 0.26 and the “self-splicing fitness (ln)” value (37 °C) is reported as -1.68 ± 0.49.

In the case of CUGUAGCAAUAUUACGAAGU, the “self-splicing fitness (ln)” value (30 °C) is reported as -2.13 ± 0.23 and the “self-splicing fitness (ln)” value (37 °C) is reported as -1.82 ± 0.27.

In the case of CUGUAGCAAUAUUACGAAUG, the “self-splicing fitness (ln)” value (30 °C) is reported as -1.12 ± 0.081 and the “self-splicing fitness (ln)” value (37 °C) is reported as 0.429 ± 0.11.

In the case of CUGUAGCAAUAUUACGAGCA, the “self-splicing fitness (ln)” value (37 °C) is reported as -2.01 ± 0.31.

For CUGUAGCAAUAUUACGAGGG, the “self-splicing fitness (ln)” value (30 °C) was -3.5 ± 0.49 and the “self-splicing fitness (ln)” value (37 °C) was -1.14 ± 0.34.

With CUGUAGCAAUAUUACGAUGG the “self-splicing fitness (ln)” value (30 °C) was -2.74 ± 0.18 and the “self-splicing fitness (ln)” value (37 °C) was -1.81 ± 0.19.

With CUGUAGCAAUAUUACGAUGU the “self-splicing fitness (ln)” value (30 °C) was -5.35 ± 0.11 and the “self-splicing fitness (ln)” value (37 °C) was -5.09 ± 0.16.

With CUGUAGCAAUAUUACGCAGU the “self-splicing fitness (ln)” value (30 °C) was -2.29 ± 0.15 and the “self-splicing fitness (ln)” value (37 °C) was -3.65 ± 0.33.

In the case of CUGUAGCAAUAUUACGCAUA, the “self-splicing fitness (ln)” value (30 °C) is reported as -2.83 ± 0.47 and the “self-splicing fitness (ln)” value (37 °C) is reported as -2.43 ± 0.41.

With CUGUAGCAAUAUUACGCCGC the “self-splicing fitness (ln)” value (30 °C) was -2.54 ± 0.41 and the “self-splicing fitness (ln)” value (37 °C) was -1.08 ± 0.47.

With CUGUAGCAAUAUUACGGGGA the “self-splicing fitness (ln)” value (30 °C) was -2.67 ± 0.17 and the “self-splicing fitness (ln)” value (37 °C) was -2.9 ± 0.24.

In the case of CUGUAGCAAUAUUACGGUAG, the “self-splicing fitness (ln)” value (30 °C) is reported as -2.9 ± 0.21 and the “self-splicing fitness (ln)” value (37 °C) is reported as -1.98 ± 0.25.
